This note sets out measurements from patent US20100184709.

The data set addresses T1, Ac-LRSR-amc.
T1 chain: LRSR

B1: recombinant purified GST-Malt1 protein, oligomerized by binding to glutathione sepharose (protein)
chain: MSLLGDPLQALPPSAAPTGPLLAPPAGATLNRLREPLLRRLSELLDQAPEGRGWRRLAELAGSRGRLRLSCLDLEQCSLKVLEPEGSPSLCLLKLMGEKGCTVTELSDFLQAMEHTEVLQLLSPPGIKITVNPESKAVLAGQFVKLCCRATGHPFVQYQWFKMNKEIPNGNTSELIFNAVHVKDAGFYVCRVNNNFTFEFSQWSQLDVCDIPESFQRSVDGVSESKLQICVEPTSQKLMPGSTLVLQCVAVGSPIPHYQWFKNELPLTHETKKLYMVPYVDLEHQGTYWCHVYNDRDSQDSKKVEIIIGRTDEAVECTEDELNNLGHPDNKEQTTDQPLAKDKVALLIGNMNYREHPKLKAPLVDVYELTNLLRQLDFKVVSLLDLTEYEMRNAVDEFLLLLDKGVYGLLYYAGHGYENFGNSFMVPVDAPNPYRSENCLCVQNILKLMQEKETGLNVFLLDMCRKRNDYDDTIPILDALKVTANIVFGYATCQGAEAFEIQHSGLANGIFMKFLKDRLLEDKKITVLLDEVAEDMGKCHLTKGKQALEIRSSLSEKRALTDPIQGTEYSAESLVRNLQWAKAHELPESMCLKFDCGVQIQLGFAAEFSNVMIIYTSIVYKPPEIIMCDAYVTDFPLDLDIDPKDANKGTPEETGSYLVSKDLPKHCLYTRLSSLQKLKEHLVFTVCLSYQYSGLEDTVEDKQEVNVGKPLIAKLDMHRGLGRKTCFQTCLMSNGPYQSSAATSGGAGHYHSLQDPFHGVYHSHPGNPSNVTPADSCHCSRTPDAFISSFAHHASCHFSRSNVPVETTDEIPFSFSDRLRISEK
Take B1: the “LRSR-amc cleavage activity of recombinant enzyme (fluorescence)” value is “recombinant purified GST-Malt1 protein, oligomerized by binding to glutathione sepharose, was tested for LRSR-amc clavage activity”.
